The record followed here is publication PMC8503589 (The Journal of Biological Chemistry, 2021).

Series [1] has as its system F. necrophorum ODC (aODC). The settings on record: 50 mM HEPES pH 7.7, 100 mM NaCl, 20 μM PLP, 1 mM DTT, 26 °C.
The test system of the next series is T1, C. botulinum ODC (aODC).
T1 construct: gene CLI_3176

The subject of the next series is T2, B. cihuensis ADC.
T2 construct: gene aADC
The settings on record: 50 mM HEPES pH 7.7, 100 mM NaCl, 20 μM PLP, 1 mM DTT, 26 °C.

Substrate in series [2]: NCCCC[C@H](N)C(=O)O
The experiment in a line: purified protein. The following applies: 50 mM HEPES pH 7.7, 100 mM NaCl, 20 μM PLP, 1 mM DTT, 26 °C.

Substrate in series [3]: NCCC[C@H](N)C(=O)O
Kind of series: purified protein. The settings on record: 50 mM HEPES pH 7.7, 100 mM NaCl, 20 μM PLP, 1 mM DTT, 26 °C.

Substrate in series [4]: N=C(N)NCCC[C@H](N)C(=O)O
Kind of series: purified protein. The following applies: 50 mM HEPES pH 7.7, 100 mM NaCl, 20 μM PLP, 1 mM DTT, 26 °C.

For the molecule `NCCCC[C@H](N)C(=O)O` [L-lysine], the Km (commonly the concentration of substrate that gives half-maximal velocity) in series [1] was 4000 ± 1700 µM; with C. botulinum ODC (aODC), 2000 ± 90 µM.
Regarding `N=C(N)NCCC[C@H](N)C(=O)O` [L-arginine], the Km in series [1] amounted to 19000 ± 2300 µM; in the series on B. cihuensis ADC, 450 ± 10 µM; with C. botulinum ODC (aODC), 3800 ± 250 µM.
Regarding `NCCC[C@H](N)C(=O)O` [L-ornithine], the Km in series [1] was determined as 650 ± 30 µM; with C. botulinum ODC (aODC) it was 600 ± 30 µM.

B1: L. ferroxidans LDC (Leptospirillum ferrooxidans C2-3) (protein)
chain: MTPYDHNRTPLFDAMVALAESRKVSFHTPGHKSGKGISTRFRKFVGPKVFSIDLTCLDEVDSLQKPRGVIREAQELAADIYGADQSFFLVNGTSGGNQAMILSVMKPGEPILLTRILHKSVVSGLIMTDCKPIFIPLQSTPDCDLLLNDRTDTIIQAMNRHPEAKKLFLTSPNYYGVTLDLPTIIQEAHSRGVTVLVDEAHGPHLHFHDDLPPSAMASNADLCVQSTHKIIGGMTQASILHAKKANIDIERLTSVLRYLQTTSPSYILMASLDLARMQMATEGKKLLSKAIDLARKARERIRKIPGLTCIDRDEVKAASGGDNDLDETKLAIGVKGIGLTGYQVSQKLNHEFGIQVEMADLHHVLVIVSIGDHREDLDRLVRAMEAISHQAMTLKSIIPINVKPPYAIASSRMNPREAFFSSHQSVPLEEALGKTAADIVTVYPPGIPLLIPGEEITQTVLDHLILMRETGATLDGLDSDNRLINIV
For the molecule B1, in “purified protein [2]”, the Km worked out at 370 ± 70 µM; the kcat (in general, the maximal rate divided by the concentration of active sites) stood at 0.25 s⁻¹; the kcat/Km (in general, the second-order rate constant that governs catalysis at low substrate concentration) worked out at 700 M⁻¹ s⁻¹. Also, in the series “purified protein [3]”, the Michaelis-Menten constant (Km) came to 28000 ± 7200 µM, the kcat is 0.17 s⁻¹ and the catalytic efficiency (kcat/Km) was 4.2 M⁻¹ s⁻¹.

B2: M. blatticola ADC (Methanimicrococcus blatticola) (protein)
chain: MDQNATPIIDALREFDQKNITSYDVPGHKRGIREDDFQKLVGKEVYLMDVNSPVGMDTFAHPKGVIKHSLELAAEAYKADNAFYLVNGSSSGVQIMIMTVCYDGEKILIPRNAHKSVTNSLILSGAVPVFMEPEINQNFAIASGMTLKTIQKYVEANPDAKALFLVYPTYYGACADLEQIIEYAHSKDIVVMVDQAHGAHFSFSSALPKSAAELGADLVVASTHKTGGSLTQSAMLLHNEGLVKYHSIKKRVLMFHTTSPSYLLMASLESSRKLLATQGEEIFHELVHECRKVKKEISKIPGLSVLDENEGVTTMTYDPTKIVINVTKLGLDGFDVYDIMFEKYGIQMELAEPTIVLAVIGIGDTKETIWRLVDAFRDLSDTYYGKYEMLDIPEEIVYVPPQILSPRQAFYADKVSVKIGEAVGRVAAEAVMIYPPGIPICIPGELITAETIEEILYCQENSDCVQKDSKEKDHILVVDDSTE
As for B2, the Km in “purified protein [4]” was determined as 650 ± 60 µM.

B3: C. exile ODC (Caldisericum exile AZM16c01) (protein)
chain: MEQERAPLYEAVSKYIKRKMIPFHMPGHSQGKGAPKILKRLFGDKFFDFDLTEVSGLDYLHYAQGVIREAENLASSLYGTEATIFLVNGTTAGVHAMILDSVRENEKIIIGRNSHRSVIGGILLAKAKPVFVQPEFNEEFGIITNVTPESIKKAITENPDAKAVLVTTPNYYGLQGRIKDIIDIVHENGMRALVDEAHGAHFPFNSKFPKSAIYLGADLVTQSAHKTLPTLTQTSFLHIPSKDVNVDRIEQILSIIESSSPSYIFMTALDVARREMALHGKEMWDKAIEVAEYARERISALDGFKVITDKTINGKDVYAFDPIKLTINVQELGYSGFEFEHILNKNGIEIELADLQNVLLFITIGTSKRDIDTLVSVLKRIEPRKEKSTVRMPKLPEAPSFAMLPFEAFQREFEVVPLRETKGRVSWGIVAPYPPGIPVLAPGMIIDEECIEFTQEVFEKGGLVQGSIRYGSEIAIRVVKGE
Consider B3, for which, in “purified protein [4]”, the Km worked out at 540 ± 40 µM, the kcat came out at 0.04 ± 0.002 s⁻¹ and the kcat/Km stood at 82 ± 3.2 M⁻¹ s⁻¹. In the series “purified protein [3]”, the Km came out at 180 ± 10 µM, the kcat was determined as 0.11 s⁻¹ and the kcat/Km worked out at 590 M⁻¹ s⁻¹.

B4: H. thermocellum ADC (aADC) (Acetivibrio thermocellus ATCC 27405) (protein)
chain: MVLRMNQLKTPVFDAVKRYVESNVIQFHVPGHKQGAGLEELREYIGETALKMDANGMEDLDFANNPTGVIYESEMLAAQAFGAQHAYFLVNGTTSGVQAMIMSACEPGDKIILPRNAHKSTIGGIILSGAVPVYVQPEINEKLGIAMGITVESLKKAIKENPHAKAVFIINPTYYGIASDLKSLVRIAHRYEMAVLVDEAHGAHMSFHDDFPLTAMEVGADMSAVSTHKTGGSLTQSSLLLLRGNMISPERVKQVLNLTYTSSASYLLMCSLDIARKQLATKGSDMLEETLRLARMAREEINKIEGLYAFGKELIGTPGCHDFDETKLGICVSGLGYTGYEMEAKLRKEYNIQIEMSDLSNILAIVSIGDREENLVALINALKDIAAKTEKKEYPKPPIIPPTPKMIVSPRDAFYSPKKIVPLDKSVGEISGEMVMAYPPGIPVVCMGERITQDIVDYIKILKEQKTQLQGTADPYIDHIMVLGVD
As to B4, in the series “purified protein [4]”, the Km came out at 130 ± 10 µM, the kcat stood at 0.05 s⁻¹ and the kcat/Km stood at 410 M⁻¹ s⁻¹.

B5: Psychrilyobacter sp. S5 ADC (Psychrilyobacter piezotolerans) (protein)
chain: MQNKTPLFDALKNYHKTDIVSFDVPGHKKRFQNEFSDYVGHKIIELDTNSMKELDILNNPTGVIREAHQLMADAYSADEAFFLVNGTTSGIQTMVMSACNPGDKIILPRNVHKSAINALILSGATPVYIDPEVDETLGISLGISVEKIKEALIKDPDIKAVFIINPTYYGAVSDLEEIIKICHEKNMVVLVDEAHGAHFPFHEKFPKNAMALGADMSAVSIHKTGGSLTQSSVLFLNHRRIKQERVKNMLNLTQTTSASYLLMTSLDVARKTLVTQGDEIFNDLLEMISKFREELNSIPGIRCFKSILSDKLYDFDDTKIGINLHGLGLTGFEGYDILREKYNIQMELADTHNILGIASIGDTWEDYQKLIDALKEMAENYEGNNQLIDFNELESLELVVSPRDAFYSETESIPLSEAIGKVSGESIMVYPPGIPLLIQGERITKDLIDHIYFLKEQKAVITGMNDKTLNNISILKGEHR
Turning to B5, in the series “purified protein [2]”, the Michaelis constant (Km) worked out at 6600 ± 1300 µM, the kcat turned out to be 0.06 s⁻¹ and the kcat/Km was found to be 9.5 M⁻¹ s⁻¹. Also, in the series “purified protein [4]”, the Km is 210 ± 20 µM, the kcat amounted to 0.3 s⁻¹ and the kcat/Km came out at 1400 M⁻¹ s⁻¹.
